According to US20130109581A1, “POSITIVELY CHARGED SPECIES AS BINDING REAGENTS IN THE SEPARATION OF PROTEIN AGGREGATES FROM MONOMERS” (priority 2009, published 2013):
Like-named read-outs stand apart in the source and are kept apart here. Where no end group is shown, it is not given here. [ ]: non-standard residue; d: D form. Ahx = NCCCCCC(=O)O

Columns and labels:
Assay type in all cases: binding
Abeta 42 globulomer = Abeta 42 globulomer (Homo sapiens, UniProt P05067); assay: NMPA with detergent washing after PSR1 pulldown: globulomer detection
normal CSF Aβ42 = molecular target: T1, normal CSF Aβ42 (Homo sapiens, UniProt P05067); assay: NMPA with detergent washing: background from unspiked CSF, Abeta42; conditions: CSF; PSR1 beads treated with detergent post capture
T1 construct: reduced the detection of normal CSF Aβ42 to the background levels; from tissue; host or cells: pooled normal cerebrospinal fluid
Description: Second, two neutral detergents, polyethylene glycol sorbitan monolaurate (available as TWEEN 20 from Sigma-Aldrich, St. Louis, Mo.) and n-tetradecyl-N,N-dimethyl-3-ammonio-1-propanesulfonate (available as ZWITTERGENT 3-14 from EMI) Chemicals, Gibbstown, N.J.) were used to treat the globulomer-spiked CSF samples that had been contacted with PSR1 beads. For each assay, a mixture of 30 μl of PSR1 beads (coated at about 7-12 nmol PSR1 ligand/mg DYNAL beads, which were used in this example and in the following examples unless otherwise stated) and 70 μl of 1×TBSTT was immediately pipetted into each well on the pulldown plate. The liquid was removed on a magnetic separator. Fifty micro liters of 5×TBSTT was added to each well. The beads were suspended by briefly shaking at 750 rpm. Next […] of TBSTT or CSF sample without globulomer was added to each well. The pulldown plate was sealed and incubated at 37° C. for 1 hour with shaking at 500 rpm. After incubation, the beads were washed 8 times with TBST on the plate washer. After the plate wash, residual TBST buffer was removed from the beads on the magnetic separator. The beads were then incubated with 100 μl of either TBS, 1% Tween20 or 1% Zwittergent 3-14 for 30 minutes at room temperature at 750 rpm, (followed by an additional 8 washes with TBST on the plate washer. After removing residual TBST on the magnetic separator, 20 μl of denaturing solution, typically 0.1-0.15 N NaOH, was added to the beads. The plate was covered with an aluminum foil plate sealer and incubated at 80° C. for 30 minutes with shaking at 750 rpm. After incubation, the plate was cooled to room temperature and twenty micro liters of neutralizing solution, typically 0.12-0.18 M NaH2PO4+0.4% Tween20) was added into each well and the plate was incubated at room temperature for 5 minutes with shaking at 750 rpm. […] MSD Abeta Triplex Assay was preformed according to the manufacturer's instructions.
A summary of the assay results and calculated signal/noise is shown below in Table 17.

Abeta 1-42 globulomer = molecular target: T2, Abeta 1-42 globulomer (Homo sapiens, UniProt P05067); assay: Globulomer capture assay in CSF (Example 6); conditions: for 42:40 (signal:noise ratio): 1 ng/ml average reading, ratio of 42 to 40; for 42, 1 ng/ml average reading: Abeta 1-42 globulomer spiked at 1 ng/mL into CSF; for globulomer capture: Abeta42 globulomer spiked into CSF, reagents on beads
T2 construct: beta amyloid (1-42) was monomerized with incubation in hexafluoroisopropanol
Description: (§1) A series of new potential aggregate-specific binding reagents were designed as shown below and conjugated onto magnetic Dynal M270 beads as described in Example 2. Typically 7-12 nmol of ligand (each candidate aggregate-specific binding reagent) was coated onto 1 mg of beads.
(§2) Aliquots of the beads (typically 3 ul) were added to wells of a 96 well plate, followed by sample (with or without Abeta 1-42 globulomer (an Abeta42 oligomer model) spiked in 80:20 CSF:TBSTT, typically 125 ul). The plate was sealed and incubated for 1 hour at 37° C. with shaking. The plate was washed with aqueous solutions of detergent (typically polyethylene glycol sorbitan monolaurate and n-tetradecyl-N,N-dimethyl-3-ammonio-1-propanesulfonate) to remove ubound material and the residual buffer removed. A denaturing solution (typically 0.1-0.15 N NaOH) was added to each well and the plate heated to 80° C. for 30 min with shaking. After cooling the plate to room temperature, a neutralizing buffer (typically 0.12-0.18 M NaH2PO3 in 0.4% TWEEN20,) was added and the plate was shaken briefly at room temperature. The bead eluate was analyzed using either an Aβ42-specific ELISA or the MSD® 96-Well MULTI-SPOT® Human/Rodent [4G8] Abeta Triplex Ultra-Sensitive Assay from Meso Scale Discovery (Gaithersburg, Md.). For the Aβ42-specific assay, the samples were eluted from the beads and a detection antibody (4G8 HRP) was added to a plate bearing the Aβ42-specific antibody 12F4. The plate was incubated for 1 hour, washed, the substrate was added (SuperSignal West Femto Maximum Sensitivity Substrate from Thermo Fisher, Rockville, Md.), and the luminescence was measured. The MSD plate assay was performed in a similar fashion, according to the manufacturer's protocol.
(§3) In this experiment the preferred number of charges within a given scaffold was identified. An Ala/Lys peptide framework was utilized, where the inclusion of each Lys residue increases the peptides' net charge by +1. Six hexapeptides with increasing charge (+1→+6), AAAKAA, AAKKAA, AAKKKA, AKKKKA, AKKKKK, and KKKKKK, were prepared and conjugated on the beads. The ability of these beads to capture Abeta 1-42 globulomer spiked at 1 ng/mL into CSF was tested, and the result is shown in FIG. 25. The globulomer capture level (“42 1 ng/ml” or the closed bars) was compared to the background signal of Abeta 1-42 detected in the unspiked CSF (“42 0 ng/ml”) and the background signal of Abeta 1-40 detected in unspiked CSF (“40 0 ng/ml”) or CSF spiked with AB42 oligomers “40 1 ng/ml”. The charge density, as conjugated to the magnetic beads, of each reagent evaluated in this experiment is shown below in Table 8.

Abeta 1-40 monomer = molecular target: T3, Abeta 1-40 monomer (Homo sapiens, UniProt P05067); assay: Globulomer capture assay in CSF (Example 6): Abeta 1-40 noise; conditions: for 40, 1 ng/ml average reading: Abeta 1-40 signal (noise), CSF samples; for background monomeric Abeta capture (noise): CSF
T3 construct: Abeta 1-40 monomer capture level; from tissue; host or cells: cerebrospinal fluid (matrix of the assay)
Description: as §1, §2, §3

[1] = 0.5 ng/mL vs 0 ng/mL globulomer
[2] = Abeta 42 RLU at 0.5 ng/mL over average Abeta 40 RLU
[3] = CSF, PSR1 beads treated with detergent post capture

Molecule | 42:40 (signal:noise ratio) (Abeta 1-42 globulomer) | 42, 1 ng/ml average reading (Abeta 1-42 globulomer) | 40, 1 ng/ml average reading (Abeta 1-40 monomer) | globulomer capture (Abeta 1-42 globulomer) | further results
CCCCCCCCCCCCCC(=O)NCCC[N+](C)(C)CCCS(=O)(=O)[O-] [ASB-14, Amidosulfobetaine-14,3-[N,N-Dimethyl(3-myristoylaminopropyl)ammonio]propanesulfonate] | – | – | – | – | Abeta 42 RLU, 0.5 ng/mL Abeta 42 globulomer, Average (Abeta 42 globulomer): 779.3 RLU; S/N Abeta 42 globulomer-spiked/Abeta 40 (Abeta 42 globulomer): 2.0; S/N Abeta 42 globulomer-spiked/unspiked (Abeta 42 globulomer): 8.7; Abeta 42 RLU, 0 ng/mL Abeta 42 globulomer, Average (normal CSF Aβ42): 89.7 RLU
CCCCCCCCCCCCCCCC(=O)NCCC[N+](C)(C)CCCS(=O)(=O)[O-] [ASB-16, Amidosulfobetain-16,3-[N,N-Dimethyl-N-(3-palmitamidopropyl)ammonio]propane-1-sulfonate] | – | – | – | – | Abeta 42 RLU, 0.5 ng/mL Abeta 42 globulomer, Average (Abeta 42 globulomer): 788.7 RLU; S/N Abeta 42 globulomer-spiked/Abeta 40 (Abeta 42 globulomer): 2.8; S/N Abeta 42 globulomer-spiked/unspiked (Abeta 42 globulomer): 8.2; Abeta 42 RLU, 0 ng/mL Abeta 42 globulomer, Average (normal CSF Aβ42): 95.7 RLU
CCCCCCCCc1ccc(C(=O)NCCC[N+](C)(C)CCCS(=O)(=O)[O-])cc1 [ASB-C8phn, 4-n-Octylbenzoylamido-propyl-dimethylammonio Sulfobetaine] | – | – | – | – | Abeta 42 RLU, 0.5 ng/mL Abeta 42 globulomer, Average (Abeta 42 globulomer): 936.3 RLU; S/N Abeta 42 globulomer-spiked/Abeta 40 (Abeta 42 globulomer): 1.4; S/N Abeta 42 globulomer-spiked/unspiked (Abeta 42 globulomer): 9.3; Abeta 42 RLU, 0 ng/mL Abeta 42 globulomer, Average (normal CSF Aβ42): 100.7 RLU
CCCCCCCCCCCC[N+](C)(C)CC(=O)[O-] [Empigen, N,N-Dimethyl-N-dodecylglycine betaine] | – | – | – | – | S/N Abeta 42 globulomer-spiked/unspiked (Abeta 42 globulomer; [1]): 8.7; S/N Abeta 42 globulomer-spiked/Abeta 40 (Abeta 42 globulomer; [2]): 2.6; Abeta 42 RLU, 0.5 ng/mL Abeta 42 globulomer, Average (Abeta 42 globulomer; [3]): 670.3 RLU; Abeta 42 RLU, 0 ng/mL Abeta 42 globulomer, Average (normal CSF Aβ42): 76.7 RLU
CCCCCCCC[N+](C)(C)CCCS(=O)(=O)[O-] [ZW3-08] | – | – | – | – | Abeta 42 RLU, 0.5 ng/mL Abeta 42 globulomer, Average (Abeta 42 globulomer): 668.7 RLU; S/N Abeta 42 globulomer-spiked/Abeta 40 (Abeta 42 globulomer): 0.9; S/N Abeta 42 globulomer-spiked/unspiked (Abeta 42 globulomer): 6.8; Abeta 42 RLU, 0 ng/mL Abeta 42 globulomer, Average (normal CSF Aβ42): 97.7 RLU
AAAKAA | 0.8 | 113.5 RLUs | 134.5 RLUs | – | –
AAKKAA | 1.1 | 159.5 RLUs | 147 RLUs | – | –
AAKKKA | 1.6 | 247 RLUs | 159 RLUs | – | –
AKKKKA | 2.1 | 322.5 RLUs | 155.5 RLUs | significantly lower globulomer capture efficiency | –
AKKKKK | 2.5 | 442 RLUs | 176 RLUs | – | –
ANFFAHSS | 1.8 | 994.5 RLUs | 543 RLUs | – | –
Ac-KKKFKF: acetylated KKKFKF peptide conjugated to beads with the Ahx-Ahx-Cys-NH2 linker (Ac-KKKFKF[Ahx][Ahx]C-NH2; also: conjugated to beads via the linker) | – | – | – | captured globulomer specifically | –
DFKLNFKF | 2 | 515.5 RLUs | 259.5 RLUs | – | –
F-fdb-F-fdb-fdb-fdb | – | – | – | more effective than the δ peptide | –
FKFKKK-link: FKFKKK peptide reagent with linker to bead at the right end; charge closest to the beads (FIG. 27) (not fully specified (C-terminus); printed as FKFKKK-link; also: attached to bead through link at right end) | 5.7 | 1995 RLUs | 348 RLUs | significantly better than the remainder of the beads | –
FKFNLFSG | 2.4 | 3230.5 RLUs | 1327.5 RLUs | efficient at capturing globulomer | background monomeric Abeta capture (noise) (Abeta 1-40 monomer): captured significant amounts of background monomeric species
FKFSLFSG | 1.5 | 3078.5 RLUs | 2011 RLUs | efficient at capturing globulomer | background monomeric Abeta capture (noise) (Abeta 1-40 monomer): captured significant amounts of background monomeric species
FoFooo | – | – | – | captured globulomers specifically | –
IRYVTHQYILWP | 3.2 | 3242 RLUs | 1011.5 RLUs | efficient at capturing globulomer | background monomeric Abeta capture (noise) (Abeta 1-40 monomer): captured significant amounts of background monomeric species
KFKKKF | – | – | – | captured globulomers specifically | –
KIGVVR | – | – | – | captured Abeta 1-42 globulomer at a high level that's similar to PSR1's globulomer capture level | background monomeric Abeta capture (noise) (Abeta 1-40 monomer): low levels of monomeric Abeta 1-40 noise similar to PSR1's
KKFKKF | – | – | – | captured globulomers specifically | –
KKKFKF-link: KKKFKF peptide reagent with linker to bead at the right end (FIG. 27) (not fully specified (C-terminus); also: attached to bead through link at right end) | 3.9 | 748 RLUs | 191.5 RLUs | able to capture globulomers | –
link-FKFKKK: FKFKKK peptide reagent with linker to bead at the left end (FIG. 27) (not fully specified (N-terminus); also: attached to bead through link at left end) | 4.1 | 808 RLUs | 198 RLUs | able to capture globulomers | –
n-Dodecyl-N,N-dimethyl-3-ammonio-1-propanesulfonate [ZW3-12] | – | – | – | – | S/N Abeta 42 globulomer-spiked/unspiked (Abeta 42 globulomer; [1]): 7.1; S/N Abeta 42 globulomer-spiked/Abeta 40 (Abeta 42 globulomer; [2]): 1.4; Abeta 42 RLU, 0.5 ng/mL Abeta 42 globulomer, Average (Abeta 42 globulomer; [3]): 642.0 RLU; Abeta 42 RLU, 0 ng/mL Abeta 42 globulomer, Average (normal CSF Aβ42): 90.7 RLU
